Experimental data: patent US6476188 (ROCKEFELLER UNIVERSITY, dated 2002)

T1: GST-PER 530-640 fusion protein (Drosophila, UniProt P07663 530-640)
T1 construct: range 530-640; Constructed as described in Saez and Young 1996 (cited); Immobilized on glutathione agarose beads; also called aa 530-640 of PER; not shown: Glutathione-S-transferase (GST) fusion partner
T1 sequence (looked up): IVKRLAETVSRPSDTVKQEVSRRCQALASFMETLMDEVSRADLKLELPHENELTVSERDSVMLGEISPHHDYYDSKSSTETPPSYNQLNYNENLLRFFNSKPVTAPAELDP


Tests used:
[1] = target: T1, GST-PER 530-640 fusion protein; test: GST pull-down, 35S-labeled in vitro translated DBT, SDS-PAGE and autoradiography
Excerpt: (§1) The staining confirms that similar amounts of GST and GST-PER fusion proteins were used in the assay. Arrow indicates BSA present in all the washes. (Right) GST alone and the indicated GST-PER fusions were used to bind in vitro translated, ^35S-labeled DBT protein. Labeled DBT proteins that bound to the indicated GST-PER fusions were visualized by SDS-PAGE and autoradiography. […] For hs-gfp-dbt, GFP was fused to the amino terminus of DBT.

[2] = target: T2, GST (Glutathione-S-transferase) alone (UniProt P08515 1-218 = GST); test: as above
T2 construct: Control in the pull-down assay
Excerpt: as §1

[3] = target: mouse PERIOD1 (mPER1), in vitro translated, 35S-methionine-labeled (mouse, UniProt O35973 1-1291, limits assumed); test: in vitro binding, S-agarose-bound recombinant CK1ε with 35S-labeled in vitro translated mPER1
Experimental: (§2) Half of the bound beads were then added to a kinase reaction as described above and in Example 3 below, but without c-casein or phosvitin, and incubated at 37° C. for 5 minutes. […] Reactions were separated on 12% SDS-PAGE gels, dried and exposed to phosphor screens. Following exposure to detect both the ^35S and ^32P signals, dried gels were covered with two layers of exposed X-OMAT film to block the ^35S signal. […] PER signal is indicated by filled triangles.
(§3) Per binding studies: For binding assays, mPER1 and mPER2 were synthesized from cDNAs cloned in plasmids by coupled in vitro transcription/translation reactions using ^35S-methionine in a total reaction volume of 50 μl (TNT T7 Coupled Reticulocyte Lysate System, Promega). Recombinant CK1ε was purified from *E. coli* by capture on S-agarose beads as described above. To reduce non-specific binding, 20 μl of in vitro-translated product was mixed with 50 μl of plain S-agarose beads in HND buffer (20 mM HEPES, pH 7.5, 100 mM KCl, 10% glycerol, 0.4% NP40, 1 mM DTT) with 5% BSA. This mixture was incubated at room temperature with shaking for 1 hour. Following incubation, the mixture was centrifuged at 2500 rpm for 5 minutes and the resulting supernatant was divided into two equal aliquots. […]

[4] = target: mouse PERIOD2 (mPER2), in vitro translated, 35S-methionine-labeled (mouse, UniProt O54943 1-1257, limits assumed); test: in vitro binding, S-agarose-bound recombinant CK1ε with 35S-labeled in vitro translated mPER2
Experimental: as §2, §3

mouse PERIOD1 (mPER1), in vitro translated, 35S-methionine-labeled, sequence (O35973 whole entry): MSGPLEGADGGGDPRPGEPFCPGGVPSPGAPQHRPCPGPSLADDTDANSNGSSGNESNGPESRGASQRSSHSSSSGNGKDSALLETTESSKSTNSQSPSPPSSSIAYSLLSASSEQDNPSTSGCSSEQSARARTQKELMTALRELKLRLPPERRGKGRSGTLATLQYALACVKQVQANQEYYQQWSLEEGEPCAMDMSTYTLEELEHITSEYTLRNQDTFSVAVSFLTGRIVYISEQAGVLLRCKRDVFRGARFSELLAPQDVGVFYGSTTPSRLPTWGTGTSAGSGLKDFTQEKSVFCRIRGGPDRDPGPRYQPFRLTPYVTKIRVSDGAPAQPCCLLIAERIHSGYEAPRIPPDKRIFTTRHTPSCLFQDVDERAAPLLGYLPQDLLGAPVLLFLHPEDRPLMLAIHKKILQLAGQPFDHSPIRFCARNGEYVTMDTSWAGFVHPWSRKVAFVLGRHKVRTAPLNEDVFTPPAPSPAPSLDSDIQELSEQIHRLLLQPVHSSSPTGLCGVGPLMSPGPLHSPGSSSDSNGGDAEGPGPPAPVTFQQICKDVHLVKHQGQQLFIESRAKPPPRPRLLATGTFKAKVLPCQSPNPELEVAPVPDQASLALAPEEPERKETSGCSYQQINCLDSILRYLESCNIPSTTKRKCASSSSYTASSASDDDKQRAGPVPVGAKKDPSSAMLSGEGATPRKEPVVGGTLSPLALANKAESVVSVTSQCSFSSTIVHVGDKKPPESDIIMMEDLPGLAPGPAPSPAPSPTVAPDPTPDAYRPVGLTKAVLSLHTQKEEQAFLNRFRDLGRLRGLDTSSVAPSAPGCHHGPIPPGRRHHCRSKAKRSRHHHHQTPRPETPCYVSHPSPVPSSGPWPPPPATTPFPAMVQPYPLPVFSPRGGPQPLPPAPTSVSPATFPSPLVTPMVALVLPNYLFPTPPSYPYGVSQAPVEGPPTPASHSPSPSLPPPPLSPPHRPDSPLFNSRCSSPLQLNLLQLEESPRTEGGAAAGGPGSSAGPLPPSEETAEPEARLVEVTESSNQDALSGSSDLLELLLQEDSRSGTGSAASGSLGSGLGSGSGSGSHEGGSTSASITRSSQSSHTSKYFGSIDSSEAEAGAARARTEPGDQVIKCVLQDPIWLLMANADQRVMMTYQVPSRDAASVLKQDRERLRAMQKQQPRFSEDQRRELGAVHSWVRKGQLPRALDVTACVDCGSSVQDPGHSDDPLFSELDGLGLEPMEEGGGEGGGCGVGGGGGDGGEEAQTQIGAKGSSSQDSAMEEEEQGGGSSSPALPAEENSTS
mouse PERIOD2 (mPER2), in vitro translated, 35S-methionine-labeled, sequence (O54943 whole entry): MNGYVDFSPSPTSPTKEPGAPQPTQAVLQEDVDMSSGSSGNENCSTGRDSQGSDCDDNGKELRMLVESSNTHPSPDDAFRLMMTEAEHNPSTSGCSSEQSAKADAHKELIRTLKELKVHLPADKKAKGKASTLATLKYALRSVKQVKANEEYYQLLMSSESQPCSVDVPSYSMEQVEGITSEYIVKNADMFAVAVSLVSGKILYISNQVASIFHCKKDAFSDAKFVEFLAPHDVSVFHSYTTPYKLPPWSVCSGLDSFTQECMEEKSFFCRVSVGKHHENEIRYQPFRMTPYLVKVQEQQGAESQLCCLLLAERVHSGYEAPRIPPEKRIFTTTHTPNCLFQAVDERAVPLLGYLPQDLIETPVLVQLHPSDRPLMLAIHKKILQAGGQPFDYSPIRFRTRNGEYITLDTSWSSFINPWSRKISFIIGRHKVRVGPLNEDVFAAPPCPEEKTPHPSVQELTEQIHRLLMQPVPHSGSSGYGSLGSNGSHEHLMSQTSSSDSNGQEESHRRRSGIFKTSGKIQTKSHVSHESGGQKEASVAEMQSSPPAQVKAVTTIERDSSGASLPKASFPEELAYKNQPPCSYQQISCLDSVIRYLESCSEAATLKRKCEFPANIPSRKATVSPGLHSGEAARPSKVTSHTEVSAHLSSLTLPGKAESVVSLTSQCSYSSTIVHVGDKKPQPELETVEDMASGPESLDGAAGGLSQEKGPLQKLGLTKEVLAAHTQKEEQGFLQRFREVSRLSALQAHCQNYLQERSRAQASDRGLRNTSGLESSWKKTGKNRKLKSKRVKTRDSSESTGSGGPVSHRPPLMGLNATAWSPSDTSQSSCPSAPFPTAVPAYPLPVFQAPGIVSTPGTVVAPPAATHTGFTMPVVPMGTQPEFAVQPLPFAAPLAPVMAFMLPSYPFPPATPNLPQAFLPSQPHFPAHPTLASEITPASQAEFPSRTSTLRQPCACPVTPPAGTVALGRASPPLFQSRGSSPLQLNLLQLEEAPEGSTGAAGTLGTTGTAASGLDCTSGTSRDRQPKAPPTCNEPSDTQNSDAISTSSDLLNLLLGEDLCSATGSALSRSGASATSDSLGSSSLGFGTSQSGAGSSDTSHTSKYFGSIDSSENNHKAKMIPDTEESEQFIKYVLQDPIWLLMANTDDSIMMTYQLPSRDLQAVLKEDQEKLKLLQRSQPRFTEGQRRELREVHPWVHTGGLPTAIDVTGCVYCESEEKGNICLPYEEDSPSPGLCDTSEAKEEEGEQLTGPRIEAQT
T2 sequence (P08515 whole entry): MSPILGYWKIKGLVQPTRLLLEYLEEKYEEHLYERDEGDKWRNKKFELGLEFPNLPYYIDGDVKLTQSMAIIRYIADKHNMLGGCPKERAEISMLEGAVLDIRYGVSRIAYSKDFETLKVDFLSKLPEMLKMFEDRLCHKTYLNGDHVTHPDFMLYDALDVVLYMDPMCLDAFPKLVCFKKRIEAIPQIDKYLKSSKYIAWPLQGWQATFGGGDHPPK

binding result [1] | binding result [2] | binding result [3] | binding result [4] | Binder
no binding | no binding |  |  | DOUBLETIME protein (DBT), Drosophila, in vitro translated from dbt cDNA P12, 35S-labeled (enzyme, In vitro translated, 35S-labeled; about 46 kDa by SDS-PAGE; the open reading frame predicts 440 aa; also called Drosophila CK1ε) MELRVGNKYRLGRKIGSGSFGDIYLGTTINTGEEVAIKLECIRTKHPQLHIESKFYKTMQGGIGIPRIIWCGSEGDYNVMVMELLGPSLEDLFNFCSRRFSLKTVLLLADQMISRIDYIHSRDFIHRDIKPDNFLMGLGKKGNLVYIIDFGLAKKFRDARSLKHIPYRENKNLTGTARYASINTHLGIEQSRRDDLESLGYVLMYFNLGALPWQGLKAANKRQKYERISEKKLSTSIVVLCKGFPSEFVNYLNFCRQMHFDQRPDYCHLRKLFRNLFHRLGFTYDYVFDWNLLKFGGPRNPQAIQQAQDGADGQAGHDAVAAAAAVAAAAAASSHQQQQHKVNAALGGGGGSRAQQQLQGGQTLAMLGGNGGGNGSQLIGGNGLNMDDSMAATNSSRPPYDTPERRPSIRMRQGGGGGGGGVGVGGMQSGGGGGGVGNAK
 |  | binds | binds | recombinant wild-type hamster CK1ε with N-terminal S•Tag and His-Tag fusions, captured on S-protein agarose (enzyme, Full-length cDNA expressed in E. coli BL21(DE3)pLysS; The preparation holds both autophosphorylated and unphosphorylated forms; also called wild-type CK1ε; WT; not shown: N-terminal S•Tag (15 amino acids) and His-Tag fusion from the pET-30 LIC vector) MELRVGNKYRLGRKIGSGSFGDIYLGANIASGEEVAIKLECVKTKHPQLHIESKFYKMMQGGVGIPSIKWCGAEGDYNVMVMELLGPSLEDLFNFCSRKFSLKTVLLLADQMISRIEYIHSKNFIHRDVKPDNFLMGLGKKGNLVYIIDFGLAKKYRDARTHQHIPYRENKNLTGTARYASINTHLGIEQSRRDDLESLGYVLMYFNLGSLPWQGLKAATKRQKYERISEKKMSTPIEVLCKGYPSEFSTYLNFCRSLRFDDKPDYSYLRQLFRNLFHRQGFSYDYVFDWNMLKFGAARNPEDVDRERREHEREERMGQLRGSATRALPPGPPTGATANRLRSAAEPVASTPASRIQQAGNTSPRAISRADRERKVSMRLHRGAPANVSSSDLTGRQEVSRISASQTSVPFDHLGK
 |  | binds | binds | recombinant tau mutant hamster CK1ε (Arg178Cys) with N-terminal S•Tag and His-Tag fusions, captured on S-protein agarose (enzyme, Full-length tau cDNA expressed in E. coli; Arg #178 of the wild-type protein is replaced by cysteine; also called tau CK1ε; tau mutant enzyme; not shown: N-terminal S•Tag (15 amino acids) and His-Tag fusion from the pET-30 LIC vector) MELRVGNKYRLGRKIGSGSFGDIYLGANIASGEEVAIKLECVKTKHPQLHIESKFYKMMQGGVGIPSIKWCGAEGDYNVMVMELLGPSLEDLFNFCSRKFSLKTVLLLADQMISRIEYIHSKNFIHRDVKPDNFLMGLGKKGNLVYIIDFGLAKKYRDARTHQHIPYRENKNLTGTACYASINTHLGIEQSRRDDLESLGYVLMYFNLGSLPWQGLKAATKRQKYERISEKKMSTPIEVLCKGYPSEFSTYLNFCRSLRFDDKPDYSYLRQLFRNLFHRQGFSYDYVFDWNMLKFGAARNPEDVDRERREHEREERMGQLRGSATRALPPGPPTGATANRLRSAAEPVASTPASRIQQAGNTSPRAISRADRERKVSMRLHRGAPANVSSSDLTGRQEVSRISASQTSVPFDHLGK
